Each block holds one binder with its values, some of them ahead of it.
What was measured:
Details in all cases: both partners purified
[1] = biological target: T1, PD-1-ECD (PD-1-E. coli), extracellular domain of programmed cell death protein 1 expressed in E. coli (Homo sapiens, UniProt Q15116); assay: SPR; BIAcore8000, CM5 chip, room temperature; cemiplimab-scFv (695 RU) or camrelizumab-scFv (569 RU) immobilised; PD-1 forms flowed over (PD-1-WT 0-100 nM, PD-1-N58A 50-800 nM, PD-1-E. coli 0-8 μM); 1:1 Langmuir model
T1 construct: PD-1 (programmed cell death protein 1), extracellular domain, UniProt Q15116, residues L25-R147; no glycan, no post-translational modification; Cloned into pET-21a(+); also called non-glycosylated PD-1
T1 sequence (Q15116 25-147): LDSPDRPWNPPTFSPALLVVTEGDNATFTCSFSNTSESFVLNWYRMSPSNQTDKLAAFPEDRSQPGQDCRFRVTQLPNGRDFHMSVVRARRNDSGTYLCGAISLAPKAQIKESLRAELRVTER

[2] = biological target: T2, PD-1-N58A, extracellular domain of PD-1 (residues L25-R147) with N58A, expressed in 293F cells (Homo sapiens, UniProt Q15116, N58A, glycosylated in 293F cells, specifically deficient in N58 glycosylation); assay: SPR; cemiplimab-scFv (695 RU) or camrelizumab-scFv (569 RU) immobilised on a CM5 chip, PD-1 forms flowed over (PD-1-WT 0-100 nM, PD-1-N58A 50-800 nM, PD-1-E. coli 0-8 uM); BIAcore 8000, room temperature; 1:1 Langmuir binding model; mean of three repeats
T2 construct: programmed cell death protein 1 (PD-1), extracellular domain, residues L25-R147 of UniProt Q15116, N58A; also called N58A-mutated PD-1; N58 glycosylation-deficient PD-1; not shown: His6, C-terminal, kept
T2 sequence (Q15116 25-147 N58A): as the sequence (Q15116 25-147) above, with N34A counted along it

[3] = biological target: T3, PD-1-E. coli, extracellular domain of PD-1 (residues L25-R147) expressed in E. coli (Homo sapiens, UniProt Q15116); assay: as above
T3 construct: programmed cell death protein 1 (PD-1), extracellular domain, residues L25-R147 of UniProt Q15116; no glycans (E. coli); Cloned into pET-21a(+); also called PD-1-ECD; non-glycosylated PD-1
T3 sequence (Q15116 25-147): as the sequence (Q15116 25-147) above

B1: camrelizumab-scFv (scFv, V domains shown)
VH: EVQLVESGGGLVQPGGSLRLSCAASGFTFSSYMMSWVRQAPGKGLEWVATISGGGANTYYPDSVKGRFTISRDNAKNSLYLQMNSLRAEDTAVYYCARQLYYFDYWGQGTTVTVSS
VL: DIQMTQSPSSLSASVGDRVTITCLASQTIGTWLTWYQQKPGKAPKLLIYTATSLADGVPSRFSGSGSGTDFTLTISSLQPEDFATYYCQQVYSIPWTFGGGTKVEIK
notes: scFv of camrelizumab; Named only in the SPR methods
Kd [1]: 2630 nM

koff [2]: 0.171 s⁻¹
koff [3]: 0.308 s⁻¹
B2: camrelizumab-scFv (scFv, V domains shown)
VH: B1 VH
VL: B1 VL
notes: scFv of camrelizumab

B3: cemiplimab-scFv (single-chain variable fragment of cemiplimab, VL-(GGGGS)4-VH) (scFv, V domains shown)
VH: EVQLLESGGVLVQPGGSLRLSCAASGFTFSNFGMTWVRQAPGKGLEWVSGISGGGRDTYFADSVKGRFTISRDNSKNTLYLQMNSLKGEDTAVYYCVKWGNIYFDYWGQGTLVTVSS
VL: DIQMTQSPSSLSASVGDSITITCRASLSINTFLNWYQQKPGKAPNLLIYAASSLHGGVPSRFSGSGSGTDFTLTIRTLQPEDFATYYCQQSSNTPFTFGPGTVVDFR
notes: VL of cemiplimab; linker, printed as GGGGS (4); VH of cemiplimab; Cloned into pET-21a(+); Used in the crystal and, by the SPR methods, immobilised on the CM5 chip; also called REGN2810; Libtayo
Kd [1]: 691 nM

koff [2]: 0.0274 s⁻¹
koff [3]: 0.047 s⁻¹
B4: cemiplimab-scFv, single-chain variable fragment of cemiplimab (VL-(GGGGS)4-VH) (scFv, V domains shown)
VH: B3 VH
VL: B3 VL
notes: VL of cemiplimab; structure of the cemiplimab-scFv/PD-1 complex deposited as PDB 7WVM; linker, printed as GGGGS (4); VH of cemiplimab; Cloned into pET-21a(+); also called REGN2810; Libtayo

Source: PMC8924070 (Frontiers in Immunology, 2022)
